This experiment deals with thrombin (factor IIa).

Consider “cysteine-rich anticoagulant protein (CRA), recombinant, mature form with C-terminal His-Tag (natural protein)”, for which the thrombin time (TT), clotting time of control plasma, preparation CRA P1 at 1 µM and 5 µM (21.8 s to 66.8 s; control without protein 14.3 s and 11.7 s) worked out at 66.8 s; the thrombin time (TT), clotting time of control plasma, preparation CRA P2 at 1 µM and 5 µM (16.6 s to 30.7 s; control without protein 14.3 s and 11.7 s) was determined as 30.7 s; the thrombin time (TT), clotting time of control plasma, preparation CRA P3 at 1 µM and 5 µM (20.1 s to 43.3 s; control without protein 14.3 s and 11.7 s) was 43.3 s.

Source of the values: paper PMC12731043.
